The values that follow come from PMC3885797 (2014).

The assay concerns the target T1, 6xHis-CTNNBL1Δ76 (human, UniProt Q8WYA6 77-563).
T1 chain: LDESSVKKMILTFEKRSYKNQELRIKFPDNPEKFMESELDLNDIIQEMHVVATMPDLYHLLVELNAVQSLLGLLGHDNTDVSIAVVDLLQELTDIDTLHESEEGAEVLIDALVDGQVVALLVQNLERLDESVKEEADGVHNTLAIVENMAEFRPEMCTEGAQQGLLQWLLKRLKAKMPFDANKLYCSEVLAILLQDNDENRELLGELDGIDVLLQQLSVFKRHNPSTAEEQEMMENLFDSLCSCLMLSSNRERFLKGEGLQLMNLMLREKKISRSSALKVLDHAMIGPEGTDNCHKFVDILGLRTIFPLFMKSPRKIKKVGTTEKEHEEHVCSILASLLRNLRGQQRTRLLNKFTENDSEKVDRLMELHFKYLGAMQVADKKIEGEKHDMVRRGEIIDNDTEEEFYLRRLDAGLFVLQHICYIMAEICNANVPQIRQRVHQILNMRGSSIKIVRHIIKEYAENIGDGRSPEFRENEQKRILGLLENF
Briefly: ITC; second site.

B1: Prp31 NLS peptide (peptide)
chain: RKKRGGRRYRKMKE
modifications: Limits are the UniProt NLS motif (351-364); the exact peptide is shown only in Fig. 4B and may have different flanks
By Kd is commonly meant the concentration at which binding is half-saturated. In turn, B1 showed a Kd of about 12 µM.

B2: CDC5L NLS3 peptide (peptide)
chain: KKRKRKR
modifications: Limits are the UniProt region required for CTNNBL1 interaction (200-206), taken as the NLS3 core; the assayed peptide is shown only in Fig. 4B and may have longer flanks
In turn, B2 showed a Kd of about 4 µM.
